Measured values taken from patent publication US20190062438A1 (CSL, published 2019).
Where two headings read alike, the source gives them in different places. Blank lines part the entries; values can stand above or below the binder they belong to.

Experiments:
[1] = biological target: T1, human CD131 (human, UniProt P32927 17-897); assay: cell-based or functional assay
T1 sequence: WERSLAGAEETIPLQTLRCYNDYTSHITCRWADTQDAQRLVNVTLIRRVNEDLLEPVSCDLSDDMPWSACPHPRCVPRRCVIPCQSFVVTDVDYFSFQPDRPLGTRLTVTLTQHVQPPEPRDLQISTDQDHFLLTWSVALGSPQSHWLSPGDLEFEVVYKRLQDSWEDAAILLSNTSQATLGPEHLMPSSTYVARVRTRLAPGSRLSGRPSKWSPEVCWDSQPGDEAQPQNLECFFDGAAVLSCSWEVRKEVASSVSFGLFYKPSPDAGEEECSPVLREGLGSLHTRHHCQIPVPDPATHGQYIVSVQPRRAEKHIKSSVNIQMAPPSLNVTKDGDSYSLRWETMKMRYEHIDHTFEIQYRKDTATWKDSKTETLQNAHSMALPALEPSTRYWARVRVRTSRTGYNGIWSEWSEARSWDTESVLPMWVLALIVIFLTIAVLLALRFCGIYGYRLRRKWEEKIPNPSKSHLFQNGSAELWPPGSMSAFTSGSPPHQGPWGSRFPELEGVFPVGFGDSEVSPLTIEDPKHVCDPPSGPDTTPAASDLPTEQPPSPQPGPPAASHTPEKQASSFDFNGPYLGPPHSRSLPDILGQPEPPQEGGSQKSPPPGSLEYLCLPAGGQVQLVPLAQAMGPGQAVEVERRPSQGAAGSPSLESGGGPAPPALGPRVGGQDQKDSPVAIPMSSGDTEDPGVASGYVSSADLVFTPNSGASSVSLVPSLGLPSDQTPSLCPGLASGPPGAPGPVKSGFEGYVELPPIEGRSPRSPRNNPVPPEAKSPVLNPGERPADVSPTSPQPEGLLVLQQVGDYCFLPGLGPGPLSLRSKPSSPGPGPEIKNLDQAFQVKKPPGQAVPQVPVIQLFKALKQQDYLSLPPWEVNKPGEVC

[2] = biological target: T1, human CD131; assay: saturation binding of radio-iodinated antibody to TF1 cells (second of three values in the cell)
Experimental: (§1) Cytokines and antibodies were radio-iodinated using Pierce Pre-Coated Iodination tubes (Thermo Scientific) according to the manufacturer's instructions. MAb binding to cells expressing hβc was determined by incubating 1-2×10⁶ cells with radio-iodinated mAb at a range of concentrations at 23° C. for 1-2 hours with gentle mixing. Cell suspensions were then centrifuged through fetal calf serum (FCS) and radioactivity associated with the cells pellets was assessed by counting in a Wizard² 2470 Automatic Gamma Counter (Perkin Elmer, Rowville, VIC, Australia). Non-specific binding was assessed for each radio-iodinated mAb in the presence of at least a 500-fold excess of unlabeled mAb. […] Competition binding assays were performed essentially as previously described (41). Briefly 1-2×10⁶ cells were incubated with mAb or cytokine competitor at a range of concentrations at 4° C. for 45 minutes with gentle mixing. Radio-iodinated cytokine or mAb was then added and the mixture incubated at 23° C. for a further 1-2 hours with gentle mixing. Cell suspensions were then centrifuged through FCS and radioactivity associated with the cells pellets assessed by counting.

[3] = biological target: T1, human CD131; assay: saturation binding of radio-iodinated antibody to TF1 cells (first of three values in the cell)
Experimental: as §1

[4] = biological target: T1, human CD131; assay: saturation binding of radio-iodinated IgG on human eosinophils
Experimental: (§2) Each point is the mean of duplicate determinations of cell-bound radio-iodinated antibody after subtraction of non-specific binding. Data from a single neutrophil binding experiment and a representative eosinophil binding experiment, n=2 is shown.
as §1, with “Radio-iodinated cytokine or mAb was then added and the mixture incubated at 23° C. for a further 1-2 hours with gentle mixing.” left out

[5] = biological target: T1, human CD131; assay: saturation binding of radio-iodinated antibody to cells; row 'Average for all cells (±SEM)' (neutrophils, eosinophils, TF1 cells)
[6] = biological target: T1, human CD131; assay: saturation binding of radio-iodinated IgG on human neutrophils
Experimental: as §2
as §1, with “Radio-iodinated cytokine or mAb was then added and the mixture incubated at 23° C. for a further 1-2 hours with gentle mixing.” left out

[7] = biological target: T1, human CD131; assay: saturation binding of radio-iodinated antibody to human eosinophils (first of two values in the cell)
Experimental: as §2
as §1, with “Radio-iodinated cytokine or mAb was then added and the mixture incubated at 23° C. for a further 1-2 hours with gentle mixing.” left out

[8] = biological target: T1, human CD131; assay: competition binding on purified human eosinophils: cells pre-incubated with the antibody, then equilibrated with 200 pM radio-iodinated IL-5; cell-bound c.p.m.
Experimental: (§3) Each point is the mean of duplicate determinations of cell-bound radioiodinated cytokine and error bars represent the standard deviation.
as §1

[9] = biological target: T1, human CD131; assay: competition binding on purified human eosinophils: cells pre-incubated with the antibody, then equilibrated with 340 pM radio-iodinated IL-3; cell-bound c.p.m.
Experimental: as §3, §1

[10] = biological target: T1, human CD131; assay: saturation binding of radio-iodinated antibody to TF1 cells (third of three values in the cell)
Experimental: as §1

[11] = biological target: T1, human CD131; assay: cell-based or functional assay; remark: listed apart in the source
[12] = biological target: T1, human CD131; assay: saturation binding of radio-iodinated antibody to human eosinophils (second of two values in the cell)
Experimental: as §2
as §1, with “Radio-iodinated cytokine or mAb was then added and the mixture incubated at 23° C. for a further 1-2 hours with gentle mixing.” left out

[13] = biological target: T1, human CD131; assay: cell-based or functional assay; remark: listed apart in the source
[14] = biological target: T1, human CD131; assay: competition binding on TF-1 cells: cells pre-incubated with the cytokine, then equilibrated with 85 pM radio-iodinated 9A2-VR24.29; cell-bound c.p.m.
Experimental: as §3, §1

- IC50 IL-3, TF-1 proliferation [1]: 0.144 nM
- IC50 IL-5, TF-1 proliferation [1]: 4.67 nM
- fold improvement of IC50 GM-CSF over parental 9A2 [1]: 1570 fold
- fold improvement of IC50 IL-3 over parental 9A2 [1]: 41 fold
- fold improvement of IC50 IL-5 over parental 9A2 [1]: 310 fold
- Kd [2]: 0.303 nM
- Kd [3]: 0.361 nM
- Kd [4]: 0.629 nM
- Kd [5]: 0.426 nM
- Kd [6]: 0.246 nM
- Kd [7]: 0.73 nM
- IC50 (read off the curve) [8]: ~0.3 nM
- IC50 (read off the curve) [9]: ~0.007 nM
- Kd [10]: 0.393 nM
- IC50 GM-CSF, TF-1 proliferation [11]: 0.29 nM
- Kd [12]: 0.528 nM
B1: 9A2-VR24.29 (antibody, V domains shown)
VH: EVQLLESGGGLVQPGGSLRLSCAASGFTFPWYRVHWVRQAPGKGLEWVSSIRSSGGFPYYNYKVKGRFTISRDNSKNTLYLQMNSLRAEDTAVYYCARFYDSFFDIWGQGTMVTVSS
VL: DIQMTQSPSSVSASVGDRVTITCRASQGISSWLAWYQQKPGKAPKLLIYAASSLQSGVPSRFSGSGSGTDFTLTISSLQPEDFATYYCQQANSFPITFGQGTRLEIKR
notes: IgG4pK; also called 9A2-VR24.29 IgG

- fold potency improvement (GM-CSF) over parental 9A2 [1]: 182 fold
- IC50 GM-CSF, TF-1 proliferation [13]: 2.5 nM
- IC50 IL-3, TF-1 proliferation [13]: 0.726 nM
- IC50 IL-5, TF-1 proliferation [13]: 23.5 nM
- pStat5 IC50 GM-CSF, TF-1 bla reporter [13]: 8.6 nM
- IC50 GM-CSF, TF-1 proliferation [11]: 2.5 nM
B2: 9A2-VR24 (antibody, V domains shown)
VH: EVQLLESGGGLVQPGGSLRLSCAASGFTFPWYRVHWVRQAPGKGLEWVSSIRSSGGFTYYADSVKGRFTISRDNSKNTLYLQMNSLRAEDTAVYYCARFYDSFFDIWGQGTMVTVSS
VL: DIQMTQSPSSVSASVGDRVTITCRASQGISSWLAWYQQKPGKAPKLLIYAASSLQSGVPSRFSGSGSGTDFTLTISSLQPEDFATYYCQQANSFPITFGQGTRLEIKR

- IC50 (read off the curve) [14]: ~0.03 nM
B3: recombinant human GM-CSF (ligand, UniProt P04141 18-144, looked up)
chain: APARSYYSPSTQPWEHVNAIQEARRLLNLSRDTAAEMNETVEVISEMFDLQEPTCLQTRLELYKQGLRGSLTKLKGPLTMMASHYKQHCPPTPETSCATQIITFESFKENLKDFLLVIPFDCWEPVQE
modifications: radio-iodinated where used as label
notes: position probably counts on mature GM-CSF
